What all share (test): cell-based or functional assay
Assay [1] deals with IL-2Rα, IL-2Rβ and common γ chain on CTLL-2 cells.
In assay [2] the target is IL-2Rβ and common γ chain on 32Dβ cells.
The target of assay [3] is TGFβ1 (R&D systems) (UniProt P01137).

EC50 of CTLL-2 cell proliferation (WST1, absorbance, EC50 of 32Dβ cell proliferation (WST1, absorbance and IC50 of inhibition of TGFβ1 activity in HEK-Blue TGFβ reporter cells (QUANTI-Blue OD data for four substances are collected here from US20250066500A1.

UniProt P01137, sequence (P01137 279-390 limits assumed): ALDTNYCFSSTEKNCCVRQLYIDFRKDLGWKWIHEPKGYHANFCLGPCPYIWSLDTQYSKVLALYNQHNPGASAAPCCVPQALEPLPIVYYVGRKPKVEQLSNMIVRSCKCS

Turning to “recombinant IL2 (Proleukin) (from UniProt P60568 22-153) (ligand)”, the EC50 of CTLL-2 cell proliferation (WST1, absorbance at 450 nM) in assay [1] came out at 0.253 nM. Further, in assay [2], the EC50 of 32Dβ cell proliferation (WST1, absorbance at 450 nM) worked out at 0.0655 nM. In the case of “recombinant IL-15 (from UniProt P40933 49-162) (ligand)”, the EC50 of 32Dβ cell proliferation (WST1, absorbance at 450 nM) in assay [2] amounted to 0.0106 nM.

“recombinant IL-2 (from UniProt P60568 21-153) (ligand)” returned an EC50 of CTLL-2 cell proliferation (WST1, absorbance at 450 nM) in assay [1] of 0.548 nM. Moreover, the EC50 of 32Dβ cell proliferation (WST1, absorbance at 450 nM) in assay [2] was 0.14 nM. In assay [3], TGFR-Fc (R&D Systems) (Fc fusion) came in with an IC50 of inhibition of TGFβ1 activity in HEK-Blue TGFβ reporter cells (QUANTI-Blue OD at 620-655 nM) of 0.461 nM.
